Experiment: yeast display, Sf9 membrane polyspecificity reagent, FACS + sequencing; frameworks hold sequencing errors
Procedure, shortened: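 Sorting gates, low and high (top ~1%), were placed on anti-HA fluorescence to track expression and on streptavidin fluorescence to track reagent binding. A clone's polyreactivity label is taken from the gate it came out of. The reagent was 10% biotinylated, detergent-solubilized Sf9 membrane, applied for 1 hour at 4 °C to galactose-induced yeast display cells.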

| Sequence | polyreactivity (PSR sort gate) |
| --- | --- |
| QVQLVESGGGLVQAGGSLRLSCAASGFTSWDNDMGWYRQAPGKERELVAAMSRGGSTNYADSVKGRFTISRDNAKNTVYLQMNSLKPEDTAVYYCAAGSYAGFAVIGYYYWGQGTQVTVSS | low polyreactivity |
| QVQLVESGGGLVQAGGSLRLSCAASGSTFDKNTMGWYRQAPGKERELVAAISRSGGSTYYADSVKGRYTISRDNAKNTVYLQMNSLKPEDTAVYYCAAQSRYWTYDYWGQGTQVTVSS | high polyreactivity |
| QVQLVESGGGLVQAGGTLRLSCAASGRIFSGYVMGWYRPAPGKERELVAVISRSGGSTYYADSVKGRFTISRDNAKNTVYLQMNSLKPEDTAVDYCAAKHIDGSRGYDYWGQGTQVTVSS | low polyreactivity |
| QVQLVESGGGLVQAGGSLRLSCAASGRIFSYNTMGWYRQAPGKERELVAAISGGGTTYYADSVKGRFTISRDNAKNTVYLQMNSLKPEDTAVYYCNAEYYGYSWRRTKYGYWGQGTQVTVSS | high polyreactivity |
| QVHLVESGGGLVQAGGSLRLSCAASGFTFNLYAMGWYRQAPGQERELVAAINSSGGTYYADSVKGRFTLSRDNAKNTVYLQMNSLTAEDTAVYYCAADFPYTPWSYHHHVWSPDFVYWGQGTQVTVSS | low polyreactivity |
| QVQLVESGGGIVQAGGSLRLSCAASGGIFYGYAMGWYRQAPGKERELVAAISSTGGRTYYADSVKGRFTISRDNAKNTVYLQMNSLKPEDTAVYYCAAEDFTRQFEYWGQGTQVTVSS | low polyreactivity |
| QVQLVESGGGLVQAGGSLRLSCAASGGTFRSNAMGWYRQAPGKERELVAAISKRGGSTHYADSVKGRFTISRDNSKNTVYLQMNSLKPEDTAVYYCNTYGWQEGDYWGQGTQVTVSS | high polyreactivity |
| QVQLVESGGGLVQAGGSLRLSCAASGSTFQIYTMGWYRQAPGKERELVAAITNGGGSTYYADSVKGRFTISRDNAKNTVYLQMNSLKPEDTAVYYCAAEQRYPLIILYDYWGQGTHVTVSS | low polyreactivity |
| QVQHVESGGGLVQAGGSLRLSCAASGSIFSVYAMGWYRPEPGKASQLFAGITRGGSTYADSVKGRFTISRDNAKNTVYLQMNSLKPEDTAVYYCAADALIATPSWGKYNYWVQGTQVTVSS | high polyreactivity |
| QDQHVESGRGLVQAGGSLRLSCAASGLIFPRNAMGWYRQAPGKERELVAVISRSGTSTYYADSVKGRFTISRDNAKNTVYLQMNSLKPEDTAVYYCAAYSRRGSSLRGRYGYWGQGTQVTVSS | high polyreactivity |
| QVQLVESGGGLVQAGGSLRLSCAASGSIFQWYAMGWYRQAPGQERELFAAITWSGDTTYYADSVKGRFTISRDNAKNTVYLQMNRLKPEDTAVYYCAADTQDRTYYGWRQVGGYDYWGQGTQVTVSS | low polyreactivity |
| QVQLVESGGGLVQAGGSLRLSCAASGSTFRYYAMGWYRQAPGKEREFVAAITASGVTTYYADSVKGRFTISRDNAKNTVYLQMNSLKPEDTAVYYCAARLYYNYRGRYNYWGQGTQVTVSS | high polyreactivity |
| QVQLVESGGGLVQAGGSLRLSCAASGSIFTAYALGWYRQAPGKERELVAAIDDSGDSTYYADSVKGRFTISRDNAKNTVYLQMHSLKPEDTAVNYCKAEYRVNKEYDYWGQGTQVTVSS | low polyreactivity |
| QVQLVESGGGLVQAGGSLRLSCAASGSRNAMGWYRQAPGKESEFVAAITWNGGSTYYADSVKGRFTISRDNAKNTVYLQMNSLKPEDTAVYYCNKREVFIYGTTYDYWRQGTQVTVSS | low polyreactivity |
| QVQHVESGGGLVQAGGSLRLSCAASGRIFGYYAMGWYRQAPGKERELVAAISRGGSTNYADSVNGRFTISLDNAKNSVYFQMNSLNPEDTAVYYCAADVASARYYHGYNYWGQGTQVTLSS | high polyreactivity |
| QGQLVESGGGLVQAGGSLRLSCAASGSTFQGYAMGWYRQAPGKERELVAAISGRSGSTYYADSVKGRFTISRDNAKNTVYLQMNSLKPEDTADYYCAAGIPFRQRLRRYYYWGQGSQVTVSS | high polyreactivity |

| Sequence | polyreactivity (PSR sort gate) |
| --- | --- |
| QVQLVESGGGLVQAGGSLRLSCAASGYLIGGNAMGWYRQAPGKERELVAVISSRAGRTYYADSVKGRFTISRDNAKNTVYLQMNSLKPEDTAVYYCNRVFSYQYKRDYWGQGTQVTVSS | high polyreactivity |
| QVQLVESGGGLVQAGGSLRLSCAASGSTLSHYAMGWYRQAPGKERELVAAINSNGGSTYYADSVKGRFTISRDNAKNTVYLQMNSLKPEDTAVYYCKTYFRYFSFYGRPFDYWGQGTQVTVSS | high polyreactivity |
| QVQLVESGGGLVQAGGSLRLSCAASGFTFEGYAMGWYRQAPGKERELVAAISYSGSSTYYADSVKGRFTISRDNAKNTVYLQMNSLKPEDTAVYYCNARRHWYSAWGYDYWGQGTQVTVSS | high polyreactivity |
| QVQLVESGGGLVQAGGSLRLSCASSGRTFGLYDMGWYRQAPGKERELVAGITRRGGRTYYADSVKGRFTISRDNAKNPVELLMHCRKPEDTAVYYCNKVVTRWNQRWRYSEGNYWGQGTQVTVSS | high polyreactivity |
| QVQLVESGGGLVQAGGSLRLSCAASGRTFETNAMGWYRQAPGKERELVASINWSGGSTYYADSVKGRFTISRDNAKNTVYLQMNILKPEDTAVYYCAADHSYWDWWSYYYWGQGTQVTVSS | low polyreactivity |
| QVQLVESGGGLVQAGVSLRLSCAASGSIFSYNAMGWYRQAPGKERELVAAISRCSGSTYYADSVKGRFTISRDIAKNTVYLQMNSLKPEDTAVYYCAGRPKTIPSYYLGYHVRFDYWGQGTQVTVSS | low polyreactivity |
| QVQLVESGGGLVQAGGSLRLSCAASGRIFPHNAMGWYRQAPGTERELVAAISSNVGSTYYADSVKGRFTISRDNAKNTVYFQMNSLKPEDTAVYYCAKYRYFAGDGDYWGQGTQVTVSS | low polyreactivity |
| QVQLVESGGGLVQAGGSLRLSCAASGLTLGDNPMGWYRQAPGKERELVAAITSGGVNTYYADSVKGRFTISRDNAKNTVYLQMNSLKPEDTAVYYCAVPNRVYSQQYKFSVRYYYWGQGTQVTVSS | low polyreactivity |
| QVQLVESGGGLVQAGGSLRLSCAASGSIFLVNAMGWYRQAPGKVRELVAAITYGGDSTYYADSVKGRFTISRDHAQNTVYLQMNSLKPEDTAVYYCAADAWVGWHDEYDYWGQGTQVTVSA | low polyreactivity |
| QVQLQESGGGLVQAGGSLRLSCAASGNISYRTHMGWYRQAPGKERELVASIGGGTTNYADSVKGRFTISRDNAKNTVYLQMNSLKPEDTAVYYCAVVGTTQFRHRYWGQGTQVTASS | high polyreactivity |
| QVQLVEYGAALVKAGGSLRLSCAPSGSIFDFYVMGWYRQAPGKERELVAAISSGGSTYYADSVKGRFTISRDNAKNTVYLQMNSLKPEDSAVYYCAAYPEYVSGAWYDYWGLGTQVTVSS | low polyreactivity |
| QVQLVESGGGLVQAGGSLRLSCAASGIIFEGKARGWYRQAPGTERELVAAISTSTGRTYYADSVKGRFTISRDNAKNTVYLQINSLKPEDTAVYYCAAYIRTTRFDYWGQGTQVTVSS | high polyreactivity |
| QVQLVESGGGLVQAGGSLRLSCAASGYTFWRYAMGWYRQAPGKERELVAAISQSGGRTYYADSVKGRFTISRDNAKNTVYLQMNSLKPEDTAVYYCATSSTQGDDYWGQGTQVTVSS | high polyreactivity |
| QVQLVESGGGLVQAGGSLRLSSAASGRTFHSYARGWYRQSPGKERELVAGMSWGGTRTTYADSVKGRFTLSRDNAKNTVYLQMNSLKPEDTADYYCNAVYYALGRSPPDYGYWGQGTQVTVSS | low polyreactivity |
| QLQLVESGGGLVQAGGSLRLSCAASGFTFYYNALGWYRQAPGKDRELVSSITRSGGRTYYAESVKGRFTISRENAKNTVYLQKNSLKPEDTAVYFCARRYPGGYYWGQGTQVTVSS | high polyreactivity |

— the nanobody polyreactivity screen of Harvey et al. (2022)
